Usually Kd stands for the concentration at which binding is half-saturated. A lower Kd goes with higher affinity.

Experiment [1] concerns the target SARS-CoV-2 Alpha (B.1.1.7) spike protein (on reporter virus particles) (SARS-CoV-2) (UniProt P0DTC2). In words: cell-based or functional assay.
The target in experiment [2] is SARS-CoV-2 Beta (B.1.351) spike protein (on reporter virus particles) (SARS-CoV-2) (UniProt P0DTC2). The experiment in a line: cell-based or functional assay.
Experiment [3] deals with SARS-CoV-2 Epsilon (B.1.427/429) spike protein (on reporter virus particles) (SARS-CoV-2) (UniProt P0DTC2). The experiment in a line: cell-based or functional assay.
Experiment [4] concerns the target SARS-CoV-2 Gamma (P.1) spike protein (on reporter virus particles) (SARS-CoV-2) (UniProt P0DTC2). In words: cell-based or functional assay.
Experiment [5] addresses SARS-CoV-2 B.1.617.1 (Kappa) RBD (SARS-CoV-2) (UniProt P0DTC2). In words: Octet BLI single point, monovalent. (In general: In BLI a coated tip is dipped into the sample, and binding shifts an interference pattern.)
In experiment [6] the target is SARS-CoV-2 B.1.617.2 (Delta) RBD (SARS-CoV-2) (UniProt P0DTC2). The experiment in a line: Octet BLI single point, monovalent.
Experiment [7] concerns the target SARS-CoV-2 B.1.351 (Beta) RBD (SARS-CoV-2) (UniProt P0DTC2). In words: Octet BLI single point, monovalent.
In experiment [8] the target is SARS-CoV-2 P.1 Spike (Gamma) (SARS-CoV-2) (UniProt P0DTC2). In words: Octet BLI single point, monovalent.

Consider RGN10933 (antibody), for which the PsV neutralization IC50 is 0.0064 µg/mL in experiment [1], 0.897 µg/mL in experiment [2], 0.0074 µg/mL in experiment [3] and 3.89 µg/mL in experiment [4]. Further, the PsV neutralization IC90 in experiment [1] stood at 0.081 µg/mL; in experiment [2], 8.28 µg/mL; in experiment [3] it was 0.058 µg/mL; in experiment [4], 16.2 µg/mL. For the same substance, the dissociation constant Kd was 12 nM in experiment [5] and 2.7 nM in experiment [6].

Consider RGN10987 (antibody), for which the dissociation constant (Kd) in experiment [7] stood at 15 nM; in experiment [5] it was 3.05 nM; in experiment [6], 9.65 nM; in experiment [8], 12.5 nM.
